Data as given in patent US20220380473A1, “ANTI-GAL3 ANTIBODIES AND USES THEREOF” (TrueBinding, Inc., priority 2019, published 2022).

What was measured:
[1] = test system: mouse macrophage cell line RAW264.7; assay: IHC and flow cytometry staining of RAW mouse macrophages; assay type: cell-based
Experimental: The expression of Gal3 on mouse macrophages was detected by both IHC and Flow cytometry analysis. In the details of IHC, 100,000 cells per well were seeded overnight. On the second day, cells were washed once with PBS, fixed with 3% formaldehyde at room temperature for 10 min, then washed twice with PBS and blocked in PBS containing 10% FBS and […] for 1 h at room temperature. After blocking, cells were incubated with 10 μg/mL of 1st antibody mIgG-biotin (BioLegend) or IMT001-biotin at 4° C. overnight, washed three times with PBST, stained with avidin-HRP (1:1000) at room temperature for 1 h and then washed three times again with PBST. The staining was developed using peroxidase substrate and counterstained with Hematoxylin QS (Vector Laboratories).
In the experiment of flow cytometry, 100,000 RAW cells were blocked with 10% FBS plus 200 μg/mL hIgG on ice for 20 min, and then incubated with 100 μl 10% FBS HBSS solution that contains control mIgG (BD Biosciences) or IMT001 at 10 μg/ml on ice for 20 minutes. Then cells were washed and incubated with APC conjugated anti-mFc antibodies (Jackson ImmunoResearch) at 1:100 on ice for 20 min. After spinning, live/dead cells were stained with Violet dead cell stain kit (Life Technologies). Stained cells were subjected to flow analysis.

[2] = test system: STAM HFD-CDAA mouse model of liver fibrosis; assay: STAM CDAA-HFD mouse model of liver fibrosis; assay type: in vivo
Experimental: To confirm that the observed reduction of liver fibrosis in the MCD mouse model was not unique to this setting, the activity of mIMT001 was explored in the STAM HFD-CDAA mouse model of liver fibrosis. Briefly, Two-day-old male C57Bl/6 mice were injected by a single subcutaneous injection of 200 ug of streptozotocin to cause islet destruction and then fed CDAA-high fat diet (Research Diet #A06071302) starting at 4 weeks of age and continuing for the entire duration of each study. At 8 weeks of age, mice were divided into two groups (seven mice each) based on ALT score. Mice were treated human anti-mIgG4 isotype control (hIgG4, 10 mg/kg) or human anti-Gal3 antibody (IMT001-4, 10 mg/kg) twice a week by intraperitoneal injection for 4 weeks. All animal care and procedures were approved by the Immutics IACUC.

human Gal3-His = human Gal3-His (Homo sapiens, UniProt P17931); assay: Antibody binning by biolayer interferometry (Gator); assay type: binding; conditions: antibody competition
human Gal3-His, sequence (P17931 whole entry): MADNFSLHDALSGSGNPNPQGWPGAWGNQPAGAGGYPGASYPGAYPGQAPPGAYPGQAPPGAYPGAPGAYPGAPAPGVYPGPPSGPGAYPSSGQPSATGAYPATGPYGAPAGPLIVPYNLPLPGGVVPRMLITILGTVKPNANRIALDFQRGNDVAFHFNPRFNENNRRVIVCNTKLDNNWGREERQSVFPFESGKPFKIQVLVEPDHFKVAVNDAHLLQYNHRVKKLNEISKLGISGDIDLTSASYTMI
Experimental: To determine whether Gal3-binding antibodies with Gal3-TIM3 blocking activity bind to the same or overlapping regions of the Gal3 molecule, antibody binning assays were performed to assess the ability of antibodies to simultaneously bind Gal3. Amine-reactive probes were loaded onto a Gator biosensor (Probe Life, Palo Alto, Calif.), equilibrated in dH20 for 60 seconds, dipped into 100 μl EDC 0.2M/NHS 0.05M activation buffer for 30 seconds, then dipped into a solution of […] human Gal3-His in 10 mM NaOAc buffer, pH 5 until binding was saturated, and quenched in 1 M ethanolamine pH 8.5 for 300 seconds. Following Gal3-His loading, tips were dipped in 20 μg/mL saturating antibody, then successively dipped into 5 μg/mL competing antibody.

[3] = test system: MC38 murine colon adenocarcinoma cells; assay: Primary mouse MC38 colon tumor model; assay type: in vivo
Experimental: On the day of tumor implantation, MC38 murine colon adenocarcinoma cells were collected, washed and resuspended in PBS. Mice were anesthetized by inhalation anesthetic (3 to 5% Isoflurane in medical grade air). 5×10^5 cells in 0.1 mL PBS were subcutaneously injected into the right flank of mice by using a syringe with a 25-ga needle. On day 7, the tumor volumes were measured and mice were randomly assigned into two groups (n=8). […] The tumor volumes and body weights were monitored twice per week. The animals were humanely sacrificed when tumor volume reached 3000 mm^3. Results were expressed as mean±SEM.

B16F10 cells [4] = test system: B16F10 cells
Experimental: The animal experiments were conducted according to a protocol approved by the Molecular Medicine Research Institute Institutional Animal Care and Use Committee. C57BL/6 mice were placed in a facility accredited by the Association for Assessment and Accreditation of Laboratory Animal Care upon arrival. Thirty six of 7-week old female mice were randomly assigned into three groups (n=12). On day 0, B16F10 cells (2×10^5 in 0.1 mL PBS) were washed and resuspended in PBS before injection into the tail veins of mice using a syringe with a 27-ga needle. […] On day 21, the animals were humanely sacrificed and lung tissues were removed and fixed in a 10% buffered formaldehyde solution. The number of black metastatic colonies on one surface of the left lobes in the lungs were counted (FIG. 7B). Results were expressed as mean±SEM. The statistical analysis was performed in comparison with IgG control group using one-way ANOVA.

[5] = test system: RAW macrophages/DO11.10 T cell mixed reaction; assay: Mixed Lymphocyte Reaction, RAW macrophages/DO11.10 T cells, IL-2; assay type: cell-based, mouse; conditions: 10 μg/ml, overnight, vs mIgG
Experimental: RAW mouse macrophage cells were mixed with […] mouse T cells at 1:1 ratio, treated with OVA peptide, and cultured in the presence of mIgG (BD Biosciences), anti mPD1 antibody 29F (BioXCell) or IMT001 at 10 μg/ml for overnight 37° C. 50 μl of the culture medium was taken for mIL-2 measurement. The mIL-2 production was measured according to the commercial kit mouse IL-2 Elisa Ready-SET-Go from eBioscience.

B16F10 cells [6] = assay: Immune profiling in B16F10 lung metastasis mice; assay type: in vivo, mouse; conditions: 10 mg/kg I.P., day 8, vs isotype control
Experimental: Mice were implanted with 1 million B16F10 cells I.V. Mice were then treated with IMT001 or isotype control (10 mg/kg I.P.) on Day 0, 1, 3 and 7 and sacrificed on day 8 for lung immune cell isolation and phenotyping. Cells were isolated from the lungs, and then stained with fluorescently labeled antibodies against lymphocyte markers CD3, CD4, CD8, CD19, DX5 and analyzed by flow cytometry.

B1: IMT001: anti-Gal3 monoclonal antibody (Immutics); printed as mIMT001 (IMT001), murine (antibody, V domains shown)
VH: QIQLVQSGPELKKPGETVKISCKASGYTFTNYGMNWVKQAPGKGLKWMGWINTNTGEPTYVEEFKGRFAFSLETSASTAYLQINNLKNEDTATYFCAPYDNFFAYWGQGTLVTVSA
VL: DIVITQDELSNPVTSGESVSISCRSSKSLLYKDGKTYLNWFLQRPGQSPQLLIYLMSTHASGVSDRFSGSGSGTDFTLEISRVKAEDVGVYYCQQLVDYPLTFGAGTKLELK
[1]; 10 μg/mL, vs mIgG control
  IHC detection of Gal3 on macrophages: clearly detected Gal3 expression on macrophages
[1]; 10 μg/ml, flow cytometry
  MFI of stained RAW cells vs isotype control: more than 10 folds
[2]; liver, 10 mg/kg twice a week i.p. for 4 weeks
  % area picosirius red staining: 1.66%
[2]; vs isotype control
  reduction of picosirius red staining: 67%
Human Gal3-His
  Bin: 1
[3]; 10 mg/Kg i.p., day 24, vs isotype control
  reduction of tumor burden: about 33%
[3]; vs isotype control
  effect on tumor size: much reduced tumor size
B16F10 cells [4]; 10 mg/Kg i.p., day 21, vs isotype control
  reduction of tumor number (black metastatic colonies): about 46%
B16F10 cells [4]; 10 mg/Kg i.p., vs isotype control
  anti-tumor effect, tumor number: significant reduction of tumor number
B16F10 cells [4]; vs isotype control
  tumor burden as indicated by lung weight: much less tumor burden
[5]
  production of IL-2: enhanced the production of IL-2
B16F10 cells [6]
  number of immune effector cells in lungs (CD3, CD4, CD8, CD19, DX5): increased the number of various immune effector cell
